Values joined by “and” are separate entries in the source; they are usually repeats but may differ in a detail not shown here. Equal entries are not always repeated.

This experiment concerns the target human IL-2 receptor αβγ trimer on CHO-K1 cells (CHO-K1 hIL-2R αβγ 2D6) (human) (UniProt P01589). The experiment in a line: FACS on CHO-K1 hIL-2R αβγ 2D6 cells.
Chain of UniProt P01589 (P01589 22-272 limits assumed, chain 1 of 3): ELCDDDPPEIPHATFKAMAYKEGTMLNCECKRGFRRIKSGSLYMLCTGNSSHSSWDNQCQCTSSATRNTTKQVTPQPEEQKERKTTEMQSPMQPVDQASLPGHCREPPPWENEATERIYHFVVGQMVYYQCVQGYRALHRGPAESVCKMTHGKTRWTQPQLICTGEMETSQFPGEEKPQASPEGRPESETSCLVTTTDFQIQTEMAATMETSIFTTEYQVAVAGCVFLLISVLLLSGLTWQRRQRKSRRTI
Chain of UniProt P01589 (chain, as listed by the source limits assumed, chain 2 of 3): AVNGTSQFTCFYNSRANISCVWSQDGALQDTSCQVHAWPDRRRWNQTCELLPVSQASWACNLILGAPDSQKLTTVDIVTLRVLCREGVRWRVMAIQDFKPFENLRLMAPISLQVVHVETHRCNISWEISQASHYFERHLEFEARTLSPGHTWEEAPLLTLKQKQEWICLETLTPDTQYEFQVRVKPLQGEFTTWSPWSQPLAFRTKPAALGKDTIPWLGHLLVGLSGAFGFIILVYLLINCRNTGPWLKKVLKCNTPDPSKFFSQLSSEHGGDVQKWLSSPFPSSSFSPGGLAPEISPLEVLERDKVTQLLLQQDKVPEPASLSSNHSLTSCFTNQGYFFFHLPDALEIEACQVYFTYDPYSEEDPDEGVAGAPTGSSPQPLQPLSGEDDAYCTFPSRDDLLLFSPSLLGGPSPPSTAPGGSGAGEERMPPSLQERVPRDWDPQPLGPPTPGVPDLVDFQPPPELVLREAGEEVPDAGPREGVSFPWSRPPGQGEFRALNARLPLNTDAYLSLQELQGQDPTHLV
Chain of UniProt P01589 (chain, as listed by the source limits assumed, chain 3 of 3): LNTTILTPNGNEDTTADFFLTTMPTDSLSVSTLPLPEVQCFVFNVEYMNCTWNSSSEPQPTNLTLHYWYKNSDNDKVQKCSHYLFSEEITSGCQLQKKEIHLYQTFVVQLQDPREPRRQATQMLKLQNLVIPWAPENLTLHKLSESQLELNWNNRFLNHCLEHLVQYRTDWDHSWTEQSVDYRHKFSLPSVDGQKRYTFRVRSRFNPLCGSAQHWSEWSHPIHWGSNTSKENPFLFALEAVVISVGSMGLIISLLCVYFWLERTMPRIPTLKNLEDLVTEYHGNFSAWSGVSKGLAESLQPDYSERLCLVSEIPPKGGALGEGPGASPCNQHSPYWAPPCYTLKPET

As to Human IgG control (antibody), the MFI at 0.0003 nM turned out to be 146 MFI; the MFI at 0.0017 nM is 120 MFI and 140 MFI; the MFI at 0.0085 nM was 119 MFI and 145 MFI; the MFI at 0.0427 nM was 274 MFI and 144 MFI. In addition, the MFI at 0.2133 nM was 181 MFI and 139 MFI; the MFI at 1.0667 nM was 157 MFI and 138 MFI; the MFI at 5.3333 nM was 124 MFI and 136 MFI; the MFI at 26.667 nM was 118 MFI and 187 MFI.

Values taken from patent publication US20230265148A1.
